Laboratory results: patent publication US20210246178A1 (DEUTSCHES KREBSFORSCHUNGSZENTRUM STIFTUNG DES FFENTLICHEN …, published 2021)

Molecular target: the molecule itself
Assay: X-ray crystal structure, 1.53 Å

B1: MSBI1.176 Rep protein WH1 domain (residues 1-135) (other)
chain: MSDLIVKDNALMNASYNLALVEQRLILLAIIEARETGKGINANDPLTVHASSYINQFNVERHTAYQALKDACKDLFARQFSYQEKRERGRINITSRWVSQIGYMDDTATVEIIFAPAVVPLITRLEEQFTQYDIE
notes: This entry is one protomer; Two protomers (A and B) form the WH1 homodimer in the crystal, so the self-pair is written as m1 with m1; The construct of residues 1-135 was expressed in E. coli as a His-tagged fusion in modified pMal-c2X and cleaved with HRV-3C protease; also called MSBI1.176 WH1; MSBI1 WH1
- binding result: binds
